From US20250382384A1 (BEONE MEDICINES I, published 2025) come the findings set out here.

Assay [1] deals with T1, full-length human MUC1 on stably transfected cells (human, UniProt P15941 24-1255).
T1 construct: also called HEK293/human MUC1; HEK293-hMUC1
Put plainly: FACS on HEK293-MUC1 cells, anti-His detection.

Assay [2] addresses T2, MUC1-SEA-mIgG2a (human; mouse, UniProt P15941 1036-1155).
T2 construct: also called huMUC1-SEA-mIgG2a; human MUC1-mFc; not shown: Fc domain of mouse IgG2a fused to the C-terminus of the SEA domain
T2 sequence: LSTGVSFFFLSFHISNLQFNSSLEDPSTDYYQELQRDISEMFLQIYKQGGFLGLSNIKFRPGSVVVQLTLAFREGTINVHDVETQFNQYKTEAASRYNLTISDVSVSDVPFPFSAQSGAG
Put plainly: SPR (Biacore 8K, 25 C), MUC1-SEA-mIgG2a captured by anti-mouse Fc, scFv analyte. (In SPR one partner is held on a chip, and binding of the other changes the refractive index at the surface.)

Assay [3] has as its target T3, native human MUC1 on tumour cell lines (human, UniProt P15941 24-1255).
T3 construct: whole, on cells; also called native MUC1; ZR-75
Put plainly: FACS on live ZR-75 cells.

For assay [4], the target named is T1, full-length human MUC1 on stably …. As to the kind of experiment: FACS (iQue3) on HEK293-hMUC1 cells.

T1 sequence (P15941 24-1255 limits assumed): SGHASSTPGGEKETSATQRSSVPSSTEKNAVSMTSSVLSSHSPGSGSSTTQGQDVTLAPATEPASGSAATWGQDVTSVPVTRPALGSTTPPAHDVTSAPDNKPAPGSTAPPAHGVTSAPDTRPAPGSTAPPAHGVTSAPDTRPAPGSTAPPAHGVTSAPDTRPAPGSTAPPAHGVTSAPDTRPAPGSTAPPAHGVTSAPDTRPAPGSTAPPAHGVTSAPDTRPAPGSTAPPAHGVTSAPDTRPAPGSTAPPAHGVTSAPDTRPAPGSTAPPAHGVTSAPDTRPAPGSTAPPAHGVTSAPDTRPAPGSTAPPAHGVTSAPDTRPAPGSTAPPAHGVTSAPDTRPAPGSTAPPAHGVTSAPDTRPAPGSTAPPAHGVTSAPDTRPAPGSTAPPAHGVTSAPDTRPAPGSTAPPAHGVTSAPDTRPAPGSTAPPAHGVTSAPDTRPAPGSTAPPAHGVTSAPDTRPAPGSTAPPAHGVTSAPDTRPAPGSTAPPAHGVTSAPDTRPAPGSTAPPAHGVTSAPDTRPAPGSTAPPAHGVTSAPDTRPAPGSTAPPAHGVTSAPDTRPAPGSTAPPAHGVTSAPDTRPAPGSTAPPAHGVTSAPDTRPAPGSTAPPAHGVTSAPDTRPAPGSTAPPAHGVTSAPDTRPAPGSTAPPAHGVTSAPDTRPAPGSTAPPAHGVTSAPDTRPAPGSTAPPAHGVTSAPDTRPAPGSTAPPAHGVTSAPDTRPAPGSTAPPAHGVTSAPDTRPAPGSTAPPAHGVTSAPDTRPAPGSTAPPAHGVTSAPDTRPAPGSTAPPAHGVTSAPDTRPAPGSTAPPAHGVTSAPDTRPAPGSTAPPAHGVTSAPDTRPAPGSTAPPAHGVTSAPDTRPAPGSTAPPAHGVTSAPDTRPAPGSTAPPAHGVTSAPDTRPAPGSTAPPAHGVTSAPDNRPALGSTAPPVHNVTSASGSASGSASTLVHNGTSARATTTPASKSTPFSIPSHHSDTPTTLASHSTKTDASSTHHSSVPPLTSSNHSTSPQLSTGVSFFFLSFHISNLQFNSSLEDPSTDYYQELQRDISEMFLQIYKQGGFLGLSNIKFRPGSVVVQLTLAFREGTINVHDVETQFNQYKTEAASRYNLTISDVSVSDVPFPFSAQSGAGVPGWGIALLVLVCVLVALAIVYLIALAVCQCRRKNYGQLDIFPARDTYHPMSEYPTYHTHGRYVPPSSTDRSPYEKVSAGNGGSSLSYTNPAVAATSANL
T3 sequence (P15941 24-1255): as the sequence (P15941 24-1255 limits assumed) above

B1: scFv3-20P (scFv)
scFv: QVQLVQSGAEVKKPGASVKVSCKASGYTFTNYWINWVRQAPGQGLEWMGEIDPSDAYTNNNQKFQGRVTMTVDTSTSTAYMELSSLRSEDTAVYYCARGRRTGFAYWGQGTLVTVSSGGGGSGGGGSGGGGSGGGGSDIQMTQSPSSLSASVGDRVTITCRASENIYSNLAWYQQKPGKAPKLLIYAATNLADGVPSRFSGSGSGTDYTLTISSLQPEDFATYYCQHFWGTPYTFGQGTKLEIKHHHHHH
notes: Humanized BG346P scFv; His tag from the stated format of the BG346P scFv constructs; also called BG346P-scFv3-20P
A word on the EC50: it is the concentration needed to bring the measured effect to its halfway point. A word on the Kd: it is the concentration at which binding is half-saturated. Low readings indicate a tighter complex, high ones a looser complex. One may read the koff as the first-order rate constant of dissociation. A higher koff goes with fast dissociation. Broadly, the kon is the second-order rate constant of association. The molecule B1 gave a concentration for a half-maximal effect (EC50) in assay [1] of 16.1 nM. In assay [2], the Kd was 67.1 nM, the koff amounted to 0.0202 s⁻¹ and the on-rate constant (kon) turned out to be 301000 M⁻¹ s⁻¹.

B2: huBG219P-Bz0 (antibody, IgG1, V domains shown)
VH: EVQLLESGGGLVQPGGSLRLSCAASGFTFNDYIMSWVRQAPGKGLEWVATVSSGGDNTYYPDSVKGRFTISRDNSKNTLYLQMNSLRAEDTAVYYCTRYGGLGAMDYWGQGTLVTVSS
VL: DIQMTQSPSSLSASVGERVTITCRASGNIHNYLTWYQQKPGKSPKLLVYNAKTLADGVPSRFSGSGSGPDYTLTISSLQPEDFATYYCQHFWSVPYTFGQGTKLEIK
notes: human wild-type IgG1 / kappa
B2: the response in assay [3] was half-maximal at 20.9 nM (EC50).

B3: huBG138P-Hz1 (antibody, V domains shown)
VH: QVQLVQSGAEVKKPGASVKVSCKASGYTFTTYTMHWVRQAPGQRLEWMGYINPGSDYTHYNQKFKDRVTITADTSASTAYMELSSLRSEDTAVYYCARQGNYAAYYFDYWGQGTLVTVSS
VL: DIQMTQSPSSLSASVGDRVTITCRASGNIHNFLVWYQQKPGKVPKLLIYNAKTLTSGVPSRFSGSGSGTDYTLTISSLQPEDVATYYCQNFWNVPFTFGQGTKLEIK
notes: humanized; constant regions not restated (IgG1/Ckappa vector used for the first round)
Usually EC50 (read off the curve) stands for the concentration needed to bring the measured effect to its halfway point. Read a high EC50 (read off the curve) as weaker potency. On to B3, for which the half-maximal effective concentration (EC50 (read off the curve)) in assay [4] is ~5 nM.

B4: huBG138P-Hz3 (antibody, V domains shown)
VH: QVQLVQSGAEVKKPGASVKVSCKASGYTFTTYTMHWVRQAPGQGLEWMGYINPGSDYTHYNQKFKDRVTITADKSASTAYMELSSLRSEDTAVYYCARQGNYAAYYFDYWGQGTLVTVSS
VL: DIQMTQSPSSLSASVGDRVTITCRASGNIHNFLVWYQQKPGKVPKLLIYNAKTLTSGVPSRFSGSGSGTDYTLTISSLQPEDVATYYCQNFWNVPFTFGQGTKLEIK
notes: humanized; constant regions not restated
As to B4, in assay [4], the concentration for a half-maximal effect (EC50 (read off the curve)) was ~5 nM.

B5: huBG138P-Hz4 (antibody, V domains shown)
VH: QVQLVQSGAEVKKPGASVKVSCKASGYTFTTYTMHWVRQAPGQGLEWMGYINPGSDYTHYNQKFKDRVTITADKSASTAYMELSSLRSEDTAVYYCARQGNYAAYYFDYWGQGTLVTVSS
VL: DIQMTQSPSSLSASVGDRVTITCRASGNIHNFLVWYQQKPGKSPKLLIYNAKTLTSGVPSRFSGSGSGTQYTLTISSLQPEDVATYYCQNFWNVPFTFGQGTKLEIK
notes: as for B4
In the case of B5, in assay [4], the concentration for a half-maximal effect (EC50 (read off the curve)) is ~3 nM.
